Laboratory results from doi:10.1101/728246 (bioRxiv, 2019).

Tests used:
[1] = biological target: the molecule itself; test: SEC
[2] = biological target: the molecule itself; test: negative-stain EM single-particle reconstruction

Protein	stoichiometry N [1]	stoichiometry N [2]
Mycobacterium smegmatis Mfd (natural protein) MTAPGHTSVQTPIAGLVELALSDPSLQDVIRRAADRPADLALVGPASARVLVAAALAQNGPLLVVAATGREADELTAELRGVFGDSVALFPSWETLPHERLSPGVETVGARLMLLRRLARPDDETLGAPLRVVVTTTRSLLQPMAPDLVDIEPVTLSVGAEMEFEDVVARLVDLSYTRVDMVGKRGEFAVRGGILDVFPPTAEHPVRVEFWGDEISEMRAFAIADQRSIPEVPVQTVVAVPCRELLMTDDVRERAAALAAEHPTTENTVPGTVPDMLAKLAEGIPVDGMEALLPLLHPIEPTTLTRHLPEGAPVLVCDPEKVRTRAADLIKTGREFLEASWSTAAVGGDAPIDLEALGASGFVTFEEAREAAREGGHPWWTLSQLSDESAVELDIRSAPSARGSQHNLEEIFAMLRAHVATGGYAAVVTPGIGTAHRVVEQLGEADTAATILEPGTAPKAGVVGVLKGPLCSGVVLPGANLVIITETDLTGNRVTANEGRKLAAKRRNVVDPLALTAGDLVVHDQHGIGKFVEMTERVVGGARREYLVLEYASSKRGGGTDKLYVPMDSLDQLSRYVGGEAPSLSRLGGSDWANTKTKARRAVREIASELVALYAKRQSAPGHAFGPDTPWQAEMEDAFGFTETIDQLTAIQEVKSDMEKPVPMDRVICGDVGYGKTEIAVRAAFKAVQDGKQVAVLVPTTLLADQHLQTFTNRMAGFPVTVKGLSRFTDPAESRAVIEGLKDGSVDVVIGTHRLLQTGVTWKDLGLIIVDEEQRFGVEHKEHIKSMRTHVDVLTMSATPIPRTLEMSLAGIREMSTILTPPEERYPVLTYVGPHDDKQVAAALRRELLRDGQAFYIHNRVRTIDEAAARVRQLVPEARVVVAHGQMNEETLEKTVEGFWNREYDILVCTTIVETGLDISNANTLIVERADTFGLSQLHQLRGRVGRSRERGYAYFLYPPNKPLTETAYDRLATIAQNNELGAGMAVAMKDLEIRGAGNVLGAEQSGHVAGVGFDLYVRLVGEAVEAYRAAADGKTVATPQEQKDVRIDLPVDAHLPPEYIGSDRLRLEAYRRLAAAADDDAVASVVDELIDRYGPLPEPAQRLVAVARLRLLCREFGITEIGAVSASTVRLSPMVLPDSAQLRLKRMYPGGHYRATTSTVQVPLPRAGEGVGAPRIRDLELVQWVAGLVLVLNGKGQGDVDMSKFSNPAGEAKR	6	–
Mycobacterium tuberculosis Mfd (transcription-repair coupling factor) (natural protein) MTAPGPACSDTPIAGLVELALSAPTFQQLMQRAGGRPDELTLIAPASARLLVASALARQGPLLVVTATGREADDLAAELRGVFGDAVALLPSWETLPHERLSPGVDTVGTRLMALRRLAHPDDAQLGPPLGVVVTSVRSLLQPMTPQLGMMEPLTLTVGDESPFDGVVARLVELAYTRVDMVGRRGEFAVRGGILDIFAPTAEHPVRVEFWGDEITEMRMFSVADQRSIPEIDIHTLVAFACRELLLSEDVRARAAQLAARHPAAESTVTGSASDMLAKLAEGIAVDGMEAVLPVLWSDGHALLTDQLPDGTPVLVCDPEKVRTRAADLIRTGREFLEASWSVAALGTAENQAPVDVEQLGGSGFVELDQVRAAAARTGHPWWTLSQLSDESAIELDVRAAPSARGHQRDIDEIFAMLRAHIATGGYAALVAPGTGTAHRVVERLSESDTPAGMLDPGQAPKPGVVGVLQGPLRDGVIIPGANLVVITETDLTGSRVSAAEGKRLAAKRRNIVDPLALTAGDLVVHDQHGIGRFVEMVERTVGGARREYLVLEYASAKRGGGAKNTDKLYVPMDSLDQLSRYVGGQAPALSRLGGSDWANTKTKARRAVREIAGELVSLYAKRQASPGHAFSPDTPWQAELEDAFGFTETVDQLTAIEEVKADMEKPIPMDRVICGDVGYGKTEIAVRAAFKAVQDGKQVAVLVPTTLLADQHLQTFGERMSGFPVTIKGLSRFTDAAESRAVIDGLADGSVDIVIGTHRLLQTGVRWKDLGLVVVDEEQRFGVEHKEHIKSLRTHVDVLTMSATPIPRTLEMSLAGIREMSTILTPPEERYPVLTYVGPHDDKQIAAALRRELLRDGQAFYVHNRVSSIDAAAARVRELVPEARVVVAHGQMPEDLLETTVQRFWNREHDILVCTTIVETGLDISNANTLIVERADTFGLSQLHQLRGRVGRSRERGYAYFLYPPQVPLTETAYDRLATIAQNNELGAGMAVALKDLEIRGAGNVLGIEQSGHVAGVGFDLYVRLVGEALETYRDAYRAAADGQTVRTAEEPKDVRIDLPVDAHLPPDYIASDRLRLEGYRRLAAASSDREVAAVVDELTDRYGALPEPARRLAAVARLRLLCRGSGITDVTAASAATVRLSPLTLPDSAQVRLKRMYPGAHYRATTATVQVPIPRAGGLGAPRIRDVELVQMVADLITALAGKPRQHIGITNPSPPGEDGRGRNTTIKERQP	6	12
